Data reported in US20260250378A1.

Legend:
[1] = molecular target: T1, purified fragment of human CNX containing Amino acids 1-481 fused to human FC region (FC-CNX) (human) (UniProt P27824); assay: BLI (Octet), scFv on penta-His sensor, FC-CNX 90, 30, 10, 3.3 nM
T1 sequence (looked up): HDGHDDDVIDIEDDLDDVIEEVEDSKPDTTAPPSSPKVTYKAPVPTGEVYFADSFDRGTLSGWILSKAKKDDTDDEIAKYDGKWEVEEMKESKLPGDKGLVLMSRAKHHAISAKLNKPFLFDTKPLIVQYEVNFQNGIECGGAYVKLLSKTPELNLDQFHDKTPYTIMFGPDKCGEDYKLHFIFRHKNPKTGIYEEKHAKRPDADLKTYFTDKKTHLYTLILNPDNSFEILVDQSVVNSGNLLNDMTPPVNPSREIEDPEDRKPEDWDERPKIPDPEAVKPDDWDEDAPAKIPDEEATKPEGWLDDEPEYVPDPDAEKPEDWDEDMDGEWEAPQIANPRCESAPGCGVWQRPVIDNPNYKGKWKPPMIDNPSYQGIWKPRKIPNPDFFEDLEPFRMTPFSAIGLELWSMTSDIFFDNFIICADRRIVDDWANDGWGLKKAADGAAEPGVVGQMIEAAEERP

[2] = molecular target: T1, purified fragment of human CNX containing Amino acids 1-481 fused to human FC region (FC-CNX) (human); assay: BLI (Octet), scFv on penta-His sensor, FC-CNX 90, 30, 10, 3.3 nM; same value in the inset box of the Fitting View (Full X^2 0.108, Full R^2 0.9955)
[3] = molecular target: T1, purified fragment of human CNX containing Amino acids 1-481 fused to human FC region (FC-CNX) (human); assay: BLI (Octet), scFv on penta-His sensor, FC-CNX 90, 30, 10, 3.3 nM; printed without the letter E

B1: scFv clone 8 (C008) (scFv, part only; not given: His and myc tags, phage protein, not shown: another chain or arm of the molecule; large carriers; small tags and cut ends)
scFv: QVQLVQSGGGVVQPGRSLRLSCAASGFTVSSNYMSWVRQAPGKGLEWVSVIYSGGSTYYADSVKGRFTISRDNSKNTLYLQMNSLRAEDTAVYYCARGSRAVAGAFDYWGQGTLVTVSSGGGGSGGGGSGGGGSYSELTQDPAVSVALGQTVRITCQGDSLRTYYANWYQQKPGQAPVLVMYAKNHRPSGIPDRFSGSSSGNTASLTITGAQAEDEADYYCGSRDSSGNHPVFGGGTKVTVL
**Q.** What does the source list for B1?
**A.** koff [1]: 0.000149 s⁻¹; Kd [2]: 0.131 nM; kon [3]: 1.14e+06 M⁻¹ s⁻¹
